Laboratory results published in PMC9508356.

Molecular target: biotinylated SARS-CoV-2 spike protein subdomain 1 (S1) (SARS-CoV-2) (UniProt P0DTC2)
Experiment: BLI

## recombinant human albumin ACE2 genetic fusion with wild type albumin sequence (WT-ACE2) (from UniProt Q9BYF1-1 18-740)
  Kd: 32.8 nM
  koff: 0.00028 s⁻¹
  kon: 7860 M⁻¹ s⁻¹

## recombinant human albumin ACE2 genetic fusion with FcRn null-binding albumin sequence (NB-ACE2) (from UniProt Q9BYF1-1 18-740)
  Kd: 31.7 nM
  koff: 0.000209 s⁻¹
  kon: 9640 M⁻¹ s⁻¹
